This is an account of results in the supplement of paper PMC9112550, “Optimization of the antimicrobial peptide Bac7 by deep mutational scanning” (BMC Biology, 2022).

This data set has as its system Escherichia coli TOP10. Put plainly: shrunken log2 fold change of peptide-encoding DNA abundance (4.5 h post-induction vs induction); higher = less antimicrobial activity (less host growth inhibition). As to conditions: time post-induction: 4.5 h; library: site-saturation at positions 5, 18, 19, 20.
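Note: peptides expressed intracellularly from a pBAD plasmid library in pooled LB shake-flask culture, induced with 0.3% L-arabinose, DNA abundance read by NGS, three biological replicates, DESeq2 with apeglm shrinkage.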

For the sequence RRIRYRPPRLPRPRPRPLIMPRP, the “shrunken log2 fold change” value is -0.0566. As for RRIRYRPPRLPRPRPRPEGEPRP, the “shrunken log2 fold change” value came to 0.199. With RRIRNRPPRLPRPRPRPRLPPRP, the “shrunken log2 fold change” value came out at 0.245. As for RRIRCRPPRLPRPRPRPENFPRP, the “shrunken log2 fold change” value is -0.32. RRIRSRPPRLPRPRPRPPQIPRP: the “shrunken log2 fold change” value turned out to be 0.138. For the sequence RRIRFRPPRLPRPRPRPQYWPRP, the “shrunken log2 fold change” value was -0.462. As to RRIRKRPPRLPRPRPRPDQYPRP, the “shrunken log2 fold change” value came out at 0.0833.

Take RRIRWRPPRLPRPRPRPVWVPRP: the “shrunken log2 fold change” value worked out at 0.257.

On to RRIRERPPRLPRPRPRPGHNPRP, for which the “shrunken log2 fold change” value was -0.115. Consider RRIRDRPPRLPRPRPRPMCFPRP, for which the “shrunken log2 fold change” value was determined as 0.0878. RRIRNRPPRLPRPRPRPWIRPRP: the “shrunken log2 fold change” value was -0.399.

In the case of RRIRHRPPRLPRPRPRPFKYPRP, the “shrunken log2 fold change” value was -0.115. Take RRIRCRPPRLPRPRPRPGTQPRP: the “shrunken log2 fold change” value amounted to 0.00157. RRIRTRPPRLPRPRPRPHSTPRP: the “shrunken log2 fold change” value is -0.374. As for RRIRRRPPRLPRPRPRPQQCPRP, the “shrunken log2 fold change” value was determined as 0.15. As for RRIRARPPRLPRPRPRPTRMPRP, the figure is 0.865. As for RRIRLRPPRLPRPRPRPFNHPRP, the figure is -0.249; as for RRIRRRPPRLPRPRPRPDTCPRP, 0.133; as for RRIRARPPRLPRPRPRPEMLPRP, 0.234. Turning to RRIRYRPPRLPRPRPRPVPAPRP, the “shrunken log2 fold change” value was -0.156. Regarding RRIRKRPPRLPRPRPRPFIFPRP, the “shrunken log2 fold change” value came to 0.085. In the case of RRIRIRPPRLPRPRPRPLWTPRP, the “shrunken log2 fold change” value is -0.339. RRIRYRPPRLPRPRPRPNMWPRP: the “shrunken log2 fold change” value is -0.391.

As to RRIRYRPPRLPRPRPRPKASPRP, the “shrunken log2 fold change” value is -0.131. As for RRIRWRPPRLPRPRPRPRTTPRP, the figure is 0.755; as for RRIRLRPPRLPRPRPRPKEFPRP, -0.0126; as for RRIRMRPPRLPRPRPRPIFMPRP, -0.0298. As to RRIRERPPRLPRPRPRPPEQPRP, the “shrunken log2 fold change” value worked out at 0.251. Regarding RRIRCRPPRLPRPRPRPQFMPRP, the “shrunken log2 fold change” value was -0.59. For RRIRRRPPRLPRPRPRPYPWPRP, the “shrunken log2 fold change” value is -0.101.

As to RRIRKRPPRLPRPRPRPTQRPRP, the “shrunken log2 fold change” value stood at 1.13. Take RRIRMRPPRLPRPRPRPDEQPRP: the “shrunken log2 fold change” value came to 0.0522. In the case of RRIRWRPPRLPRPRPRPFMWPRP, the “shrunken log2 fold change” value was -0.0278. As to RRIRMRPPRLPRPRPRPCFNPRP, the “shrunken log2 fold change” value was -0.000544.

Turning to RRIRPRPPRLPRPRPRPATAPRP, the “shrunken log2 fold change” value worked out at 0.315.

For RRIRWRPPRLPRPRPRPTHFPRP, the “shrunken log2 fold change” value was -0.478. As for RRIRVRPPRLPRPRPRPLFMPRP, the figure is -0.663. For RRIRRRPPRLPRPRPRPEPGPRP, the “shrunken log2 fold change” value amounted to 0.587.

Regarding RRIRFRPPRLPRPRPRPNRSPRP, the “shrunken log2 fold change” value was -0.299. With RRIRARPPRLPRPRPRPLHKPRP, the “shrunken log2 fold change” value is 0.408. As for RRIRCRPPRLPRPRPRPLEVPRP, the figure is -0.174; as for RRIRRRPPRLPRPRPRPTTAPRP, 0.541; as for RRIRVRPPRLPRPRPRPRYHPRP, -0.36. Turning to RRIRRRPPRLPRPRPRPQQGPRP, the “shrunken log2 fold change” value worked out at 0.0446. As for RRIRVRPPRLPRPRPRPMGDPRP, the “shrunken log2 fold change” value is -0.104. Turning to RRIRIRPPRLPRPRPRPFMFPRP, the “shrunken log2 fold change” value is -0.745. Regarding RRIRTRPPRLPRPRPRPWNMPRP, the “shrunken log2 fold change” value was -0.276.

In the case of RRIRWRPPRLPRPRPRPALKPRP, the “shrunken log2 fold change” value turned out to be 0.0103. As for RRIRFRPPRLPRPRPRPKPIPRP, the figure is 0.0634; as for RRIRNRPPRLPRPRPRPKPCPRP, 0.159. Turning to RRIRKRPPRLPRPRPRPMEAPRP, the “shrunken log2 fold change” value was 0.0719. With RRIRRRPPRLPRPRPRPCHTPRP, the “shrunken log2 fold change” value was -0.24. Turning to RRIRARPPRLPRPRPRPETQPRP, the “shrunken log2 fold change” value is 1.57.

RRIRRRPPRLPRPRPRPCFNPRP: the “shrunken log2 fold change” value is -0.271. Take RRIRRRPPRLPRPRPRPMNPPRP: the “shrunken log2 fold change” value was 0.212. As for RRIRPRPPRLPRPRPRPNMPPRP, the “shrunken log2 fold change” value is -0.405. For RRIRNRPPRLPRPRPRPHYEPRP, the “shrunken log2 fold change” value was found to be 0.0239. As for RRIRSRPPRLPRPRPRPEWFPRP, the “shrunken log2 fold change” value is -0.287.

With RRIRWRPPRLPRPRPRPMNWPRP, the “shrunken log2 fold change” value was 0.0484. In the case of RRIRVRPPRLPRPRPRPQPEPRP, the “shrunken log2 fold change” value is 0.23. To RRIRRRPPRLPRPRPRPKIGPRP belongs 0.396. As to RRIRYRPPRLPRPRPRPPWNPRP, the “shrunken log2 fold change” value was -0.161.

As for RRIRMRPPRLPRPRPRPGAIPRP, the “shrunken log2 fold change” value was determined as 1.4. As for RRIRFRPPRLPRPRPRPICVPRP, the figure is -0.161; as for RRIRQRPPRLPRPRPRPSTNPRP, -0.364; as for RRIRIRPPRLPRPRPRPKNNPRP, -0.878. In the case of RRIRQRPPRLPRPRPRPTDPPRP, the “shrunken log2 fold change” value is 0.107. As for RRIRMRPPRLPRPRPRPMNCPRP, the figure is -0.00776; as for RRIRTRPPRLPRPRPRPELYPRP, -0.258; as for RRIRKRPPRLPRPRPRPQDWPRP, 0.413.

As to RRIRDRPPRLPRPRPRPHWPPRP, the “shrunken log2 fold change” value stood at 0.197. Take RRIRARPPRLPRPRPRPILDPRP: the “shrunken log2 fold change” value turned out to be 0.229. For RRIRRRPPRLPRPRPRPRGIPRP, the “shrunken log2 fold change” value is 0.169. To RRIRDRPPRLPRPRPRPEMRPRP belongs 1.29; to RRIRLRPPRLPRPRPRPRFFPRP, 0.0823. On to RRIRQRPPRLPRPRPRPWGHPRP, for which the “shrunken log2 fold change” value is -0.0609. With RRIRSRPPRLPRPRPRPGGLPRP, the “shrunken log2 fold change” value is 0.177.

As to RRIRARPPRLPRPRPRPRWPPRP, the “shrunken log2 fold change” value stood at 0.666.

With RRIRIRPPRLPRPRPRPNLLPRP, the “shrunken log2 fold change” value was -0.309. To RRIRYRPPRLPRPRPRPFKMPRP belongs -0.673; to RRIRLRPPRLPRPRPRPTMLPRP, -0.335; to RRIRTRPPRLPRPRPRPSIVPRP, -0.427. As to RRIRLRPPRLPRPRPRPKNKPRP, the “shrunken log2 fold change” value is -0.291. On to RRIRWRPPRLPRPRPRPPNVPRP, for which the “shrunken log2 fold change” value was found to be 0.0153. On to RRIRYRPPRLPRPRPRPYCEPRP, for which the “shrunken log2 fold change” value was -0.0996. RRIRTRPPRLPRPRPRPAIVPRP: the “shrunken log2 fold change” value is 0.00191.

Take RRIRLRPPRLPRPRPRPFVHPRP: the “shrunken log2 fold change” value is -0.308.

As to RRIRERPPRLPRPRPRPRKEPRP, the “shrunken log2 fold change” value was -0.0305.

Consider RRIRMRPPRLPRPRPRPFCGPRP, for which the “shrunken log2 fold change” value was -0.0687. As for RRIRHRPPRLPRPRPRPQPYPRP, the “shrunken log2 fold change” value was -1.53. Turning to RRIRHRPPRLPRPRPRPCRSPRP, the “shrunken log2 fold change” value is -0.0622. As to RRIRYRPPRLPRPRPRPTYKPRP, the “shrunken log2 fold change” value is -1.17.

With RRIRQRPPRLPRPRPRPHNVPRP, the “shrunken log2 fold change” value is -0.0684. Regarding RRIRPRPPRLPRPRPRPGIVPRP, the “shrunken log2 fold change” value was -0.0451.

Consider RRIRPRPPRLPRPRPRPAKAPRP, for which the “shrunken log2 fold change” value was -0.0289.

With RRIRDRPPRLPRPRPRPLHTPRP, the “shrunken log2 fold change” value is -0.0544.

Take RRIRPRPPRLPRPRPRPIVHPRP: the “shrunken log2 fold change” value was -0.155. As for RRIRKRPPRLPRPRPRPKIDPRP, the “shrunken log2 fold change” value turned out to be 0.545. For RRIRGRPPRLPRPRPRPGFAPRP, the “shrunken log2 fold change” value stood at 0.831.

For the sequence RRIRARPPRLPRPRPRPMCMPRP, the “shrunken log2 fold change” value amounted to 0.272. With RRIRGRPPRLPRPRPRPGMGPRP, the “shrunken log2 fold change” value is 0.963. In the case of RRIRYRPPRLPRPRPRPDSYPRP, the “shrunken log2 fold change” value is -0.0836.

With RRIRSRPPRLPRPRPRPRSQPRP, the “shrunken log2 fold change” value came out at 0.169. RRIRQRPPRLPRPRPRPEWNPRP: the “shrunken log2 fold change” value is -0.175.

RRIRWRPPRLPRPRPRPARFPRP: the “shrunken log2 fold change” value worked out at 0.461. Turning to RRIRPRPPRLPRPRPRPVMTPRP, the “shrunken log2 fold change” value is -0.0299. Regarding RRIRERPPRLPRPRPRPTSQPRP, the “shrunken log2 fold change” value was -0.235. With RRIRHRPPRLPRPRPRPGKFPRP, the “shrunken log2 fold change” value is -0.175.

Take RRIRMRPPRLPRPRPRPLRRPRP: the “shrunken log2 fold change” value was determined as 1.94.

For RRIRFRPPRLPRPRPRPWPNPRP, the “shrunken log2 fold change” value is -0.086. For RRIRGRPPRLPRPRPRPQKWPRP, the “shrunken log2 fold change” value was found to be 0.0681. As for RRIRVRPPRLPRPRPRPKVVPRP, the “shrunken log2 fold change” value amounted to 0.174.

RRIRYRPPRLPRPRPRPLCSPRP: the “shrunken log2 fold change” value was -0.0549. On to RRIRPRPPRLPRPRPRPFCPPRP, for which the “shrunken log2 fold change” value was -0.345. For the sequence RRIRTRPPRLPRPRPRPMARPRP, the “shrunken log2 fold change” value was 0.193.

As to RRIRSRPPRLPRPRPRPIQEPRP, the “shrunken log2 fold change” value stood at 0.000527. For the sequence RRIRNRPPRLPRPRPRPGENPRP, the “shrunken log2 fold change” value is 0.185. As for RRIRYRPPRLPRPRPRPYLVPRP, the figure is -0.536. In the case of RRIRHRPPRLPRPRPRPTADPRP, the “shrunken log2 fold change” value was found to be 0.202.

As for RRIRRRPPRLPRPRPRPNWFPRP, the “shrunken log2 fold change” value is -0.0681.

Take RRIRCRPPRLPRPRPRPVGLPRP: the “shrunken log2 fold change” value is 0.0659. For RRIRGRPPRLPRPRPRPVTGPRP, the “shrunken log2 fold change” value came to 0.21. As for RRIRFRPPRLPRPRPRPEQHPRP, the figure is 1.53; as for RRIRYRPPRLPRPRPRPNYFPRP, -1.69. With RRIRHRPPRLPRPRPRPVPHPRP, the “shrunken log2 fold change” value was -0.031.
